The subject of this data set is EIAV Rev (ERev), MBP-ERev fusion (Equine infectious anemia virus (EIAV)). Put plainly: filter binding. The note with it: Footprinting: 10 mM HEPES-KOH pH 7.5, 100 mM KCl, 1 mM MgCl2, 0.5 mM EDTA, complex formed 20 min on ice, probed 10 min at room temperature.

In general, Kd refers to the concentration at which binding is half-saturated. A low value points to higher affinity. Consider “ERRE_RBR12 (ERRE, EIAV RRE-1, contains RBR-1 and RBR-2)”, for which the Kd is 19 nM.

The record behind these values is paper PMC2386976.
